In patent US7871610B2, “Antibodies to Tie1 ectodomain” (Dyax Corp., priority 2003, dated 2011):
Entries after “also recorded” stand apart in the source; their conditions may differ.

Tests used:
[1] = system: SW-480 (colorectal cancer) cells; experiment: SW-480 colorectal cancer xenograft in nu/nu mice; type: in vivo, mouse; conditions: average per group
Procedure: Mice (nu/nu) were implanted subcutaneously with 5×10^6 SW-480 (colorectal cancer) cells. After 12 days, when tumors reached approximately 100-200 mg, the mice were separated into 5 groups and treated with the following agents (or left untreated): • 1—Untreated • 2—Vehicle (PBS) • 3—Cisplatin (4 mg/kg/, IV, q2d×5 times) • 4—A2-SV (negative control antibody @ 10 mg/kg, IP, q2d×14 times) • 5—DX-2220 (anti-Tie-1 antibody @ 10 mg/kg, IP, q2d×14 times)
Throughout the study, the length (L) and width (W) of any tumors that developed were measured in millimeters using calibrated vernier calipers, where L is the longer of the two dimensions. When applicable, tumor weight (M) in milligrams was calculated by using the formula associated with a prolate ellipsoid: M=(L×W^2)/2. […] A2-SV is an isotype matched (IgG1) negative control antibody that binds strepavidin.

Tie1 = Tie1 (Homo sapiens, UniProt P35590); experiment: Immunohistochemistry of matched human tumor and normal tissue sections; parameters: from tissue; host or cells: fresh frozen normal and tumor tissue (e.g. lung, kidney, skin, breast); conditions: 10 μg/ml, fresh frozen tissue
Sequence of Tie1 (P35590 22-1138): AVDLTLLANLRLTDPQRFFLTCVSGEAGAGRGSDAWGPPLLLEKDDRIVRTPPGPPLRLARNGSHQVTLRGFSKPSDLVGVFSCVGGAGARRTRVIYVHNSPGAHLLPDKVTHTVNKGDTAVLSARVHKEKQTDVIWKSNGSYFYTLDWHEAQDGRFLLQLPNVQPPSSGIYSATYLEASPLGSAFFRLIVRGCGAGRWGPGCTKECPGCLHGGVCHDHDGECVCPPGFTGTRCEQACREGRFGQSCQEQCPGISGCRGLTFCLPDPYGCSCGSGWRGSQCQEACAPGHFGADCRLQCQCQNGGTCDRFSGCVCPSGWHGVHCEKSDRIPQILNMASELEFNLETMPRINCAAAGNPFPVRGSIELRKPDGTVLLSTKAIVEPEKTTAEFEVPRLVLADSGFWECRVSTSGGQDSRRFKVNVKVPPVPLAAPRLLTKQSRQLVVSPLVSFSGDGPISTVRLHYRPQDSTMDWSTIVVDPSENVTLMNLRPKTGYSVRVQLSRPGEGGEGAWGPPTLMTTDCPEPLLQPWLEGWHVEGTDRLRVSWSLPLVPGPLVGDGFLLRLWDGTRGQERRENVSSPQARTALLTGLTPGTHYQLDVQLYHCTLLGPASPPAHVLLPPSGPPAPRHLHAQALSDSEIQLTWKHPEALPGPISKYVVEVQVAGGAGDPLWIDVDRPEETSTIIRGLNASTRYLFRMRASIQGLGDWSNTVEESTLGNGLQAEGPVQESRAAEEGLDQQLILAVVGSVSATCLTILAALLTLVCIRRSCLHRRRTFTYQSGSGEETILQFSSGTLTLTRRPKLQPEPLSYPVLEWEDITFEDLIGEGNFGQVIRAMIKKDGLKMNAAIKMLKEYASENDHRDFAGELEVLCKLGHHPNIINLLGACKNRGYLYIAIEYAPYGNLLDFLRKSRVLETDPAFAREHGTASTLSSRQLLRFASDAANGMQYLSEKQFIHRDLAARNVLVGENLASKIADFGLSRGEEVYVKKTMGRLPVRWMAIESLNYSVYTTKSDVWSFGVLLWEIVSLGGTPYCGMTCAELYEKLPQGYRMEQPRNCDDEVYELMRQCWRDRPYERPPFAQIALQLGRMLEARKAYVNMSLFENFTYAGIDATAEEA
Procedure: The Tie-1 antibodies were biotinylated using the EZ-link Sulfo-NHS-SS-Biotin (Pierce, Cat. 21331). For Tie-1/Fc and Tie-1-His, the reaction was performed for 2 hours on ice in 50 mM sodium carbonate buffer, pH 9.6, in the presence of a 5-fold molar excess of biotinylating agent. For the antibodies, the reaction was performed for 2 hours on ice in PBS, in the presence of a 15-fold molar excess of EZ-link Sulfo-NHS-SS-Biotin. The reaction was stopped by the addition of Tris-HCl, pH 7.5 (50 mM final concentration) followed by a 1-hour incubation on ice. Samples were then dialyzed against PBS.
Various normal and tumor tissue sections were stained with biotinylated antibodies. A mouse monoclonal anti-Tie1 antibody (7e8) (Alitalo laboratory, University of Helsinki) was used as a positive control. Sections without primary antibody served as negative control. All samples were fresh frozen tissues and staining was performed with the TSA-kit (Perkin-Elmer Life Sciences). After acetone fixation (10-20 min, −20° C.) the slides were treated with 0.73% H2O2 for 10 min to reduce endogenous peroxidase activity followed by blocking for 30 min with TNB buffer. Sections ([…] thick) were incubated with primary antibodies (10 μg/ml) overnight at 4° C. Sections with the mouse monoclonal anti-tie1 antibody (7e8) were treated with biotinylated anti-mouse antibodies (VectaStain) before the addition of streptavidin-HRP. Signal was amplified by using a TSA kit and the visualized by AEC (235 ml NaAc, 15 ml AEC (stock solution: 1600 mg 3-amino-9-ethyl-carbazole and 480 ml N-dimethylformamide), 250 μl H2O2).

[2] = target: T1, Tie1-EpoR chimeric receptor (UniProt P14753+P35590); experiment: Ba/F3 bioassay (Tie1/EpoR chimeric BaF3 cell assay), MTT viability; type: cell-based, human; conditions: 100 ng/ml E3 IgG together with 100 (1:1) or 500 (1:5) ng/ml of the other antibody
T1 construct: the PCR amplified extracellular part of human Tie1 (bp 37-2316 of X60975); expressed in transfected cells
T1 sequence (P35590+P14753 with tags, fused parts or gaps): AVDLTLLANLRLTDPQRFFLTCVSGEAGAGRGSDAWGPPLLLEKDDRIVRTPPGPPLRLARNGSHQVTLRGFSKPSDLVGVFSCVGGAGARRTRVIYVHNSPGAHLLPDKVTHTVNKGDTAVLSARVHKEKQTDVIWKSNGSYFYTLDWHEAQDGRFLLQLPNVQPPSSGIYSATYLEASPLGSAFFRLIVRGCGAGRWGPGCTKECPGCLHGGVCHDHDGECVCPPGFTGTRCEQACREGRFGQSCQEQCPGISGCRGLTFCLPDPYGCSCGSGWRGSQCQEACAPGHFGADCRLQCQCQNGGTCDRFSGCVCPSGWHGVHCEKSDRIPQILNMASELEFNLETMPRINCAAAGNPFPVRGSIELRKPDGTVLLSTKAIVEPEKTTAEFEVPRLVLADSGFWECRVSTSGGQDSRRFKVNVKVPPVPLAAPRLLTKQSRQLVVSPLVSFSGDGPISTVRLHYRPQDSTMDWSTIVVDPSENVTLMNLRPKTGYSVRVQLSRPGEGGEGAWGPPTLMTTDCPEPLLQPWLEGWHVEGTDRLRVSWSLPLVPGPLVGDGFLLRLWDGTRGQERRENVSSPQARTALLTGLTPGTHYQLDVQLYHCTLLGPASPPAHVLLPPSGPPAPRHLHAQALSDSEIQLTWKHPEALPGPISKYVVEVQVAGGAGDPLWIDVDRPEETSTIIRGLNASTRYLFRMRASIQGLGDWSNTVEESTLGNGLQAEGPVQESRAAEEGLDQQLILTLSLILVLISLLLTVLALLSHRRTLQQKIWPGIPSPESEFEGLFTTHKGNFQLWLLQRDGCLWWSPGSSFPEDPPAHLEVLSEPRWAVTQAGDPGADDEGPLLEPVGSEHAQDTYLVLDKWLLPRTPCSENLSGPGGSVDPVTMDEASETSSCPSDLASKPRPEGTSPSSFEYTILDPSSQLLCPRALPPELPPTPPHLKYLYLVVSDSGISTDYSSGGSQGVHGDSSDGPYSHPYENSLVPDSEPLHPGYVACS
From the text: To generate Tie1-EpoR expressing Ba/F3 cells for the bioassay, Ba/F3 pre-B cells were stably transfected with a nucleic acid that expresses chimeric receptor containing the extracellular domain of human Tie1 fused with the transmembrane and cytoplasmic domains of the mouse erythropoietin receptor. The nucleic acid used was a Tie1-EpoR chimeric cDNA in a pEF-BOS expression vector. The nucleic acid encoding the chimeric receptor was constructed by cloning the PCR amplified extracellular part of human Tie1 (bp 37-2316 of X60975) as EcoRI-BglII fragment into mEpoR-pcDNA vector. The cDNA encoding for the chimeric receptor consisting of the extracellular part of Tie1 fused with the transmembrane and intracellular domains of EpoR was subcloned into the pEF-BOS expression vector. Vector was linearized and co-transfected into Ba/F3 cells with pcDNA3.1(+) Zeo vector (Invitrogen). Stable cell pools were generated by selection with 250 μg/ml Zeocin. The expression of Tie1/EpoR fusion protein in several clones was analyzed by Western blotting with an antibody against EpoR.
To perform the assays, Ba/F3 cells expressing the Tie 1-EpoR chimera were split in 96-well microtiter plates at 50 000 cells/well in the presence of the indicated concentrations of anti-Tie1 antibodies. As controls, Zeocin resistant pools not expressing the Tie1-EpoR were used. After 48 h, the viability of the cells was determined by adding MTT (3-(4,5-dimethylthiazol-2-yl)-2,5-diphenyl tetrazolium bromide (Sigma), 0.5 mg/ml), followed by further 2 h of culture, addition of an equal volume of cell lysis solution (10% SDS, 10 mM HCl) and incubation overnight at 37° C. Absorbance was measured at 540 nm.
Although no ligand for Tie1 has been identified, we used the following efficient screening method for Tie1-binding proteins. Interleukin-3 dependent pre-B-lymphocyte (Ba/F3) cells were transfected with a construct that expresses a Tie1-EpoR fusion protein. Since Ba/F3 cells are IL-3 dependent, they die unless IL-3 is provided. However, Tie-EpoR receptor expressing Ba/F3 cells can survive and proliferate if the medium contains a Tie1-binding protein, either a natural ligand or an artificial mimetic. Cell survival can be quantitated, e.g., by colorimetric MTT-assay, which measures mitochondrial activity.

[3] = system: bFGF-induced angiogenesis; experiment: […] plug assay, bFGF-induced angiogenesis in NMRI nu/nu mice; type: in vivo, mouse; conditions: first assay, day 7; bFGF 80 ng/ml; antibody 10 μg/ml in plug; E3 = germlined variant, IgG4
Procedure: The germlined variant of the E3 IgG antibody was evaluated in an in vivo assay for angiogenesis induced by bFGF in […]™ plugs. Growth factor reduced […]™ (BD Biosciences, catalog # 354230) was supplemented with 80 ng/ml of bFGF (R&D Systems, catalog #234-FSE). The A2-SV or an IgG4 E3 antibody (10 μg/ml) or PBS was injected subcutaneously into the abdominal area of NMRI nu/nu mice (150 μl of Matrigel/plug).
In the first assay, two mice were injected with […]™ supplemented with bFGF and soluble VEGFR-1 (10 μg/ml) as a positive control for an angiogenic inhibitor. At day 7 post-implantation mice were anesthetized and perfused through heart with 4% paraformaldehyde (PFA) in phosphate buffered saline (PBS). […]™ plugs and a piece of liver were removed and embedded in paraffin. Sections were cut and stained with hematoxylin and eosin (H&E).
In a second assay, mice were treated as described above, and then anesthetized eight days post-implantation and injected with fluorescein-conjugated tomato (lycopersicon esculentum) lectin (100 μg in 200 μl of PBS; Vector, catalog #FL-1171) into the tail vein. After five min circulation the animals were perfused through the heart with 10 ml of PBS followed by 10 ml of 4% PFA in PBS. […]™ plugs and pieces of kidney and liver were removed and frozen in OCT (Tissue-Tek). Nuclei were visualized on sections by using […]® mounting medium containing DAPI (Vector) and analyzed under fluorescence microscopy.

Q: What does the source list for `N.N.[Cl][Pt][Cl]` [cisplatin, reference compound]?
A: Tumor Weight ([1]; 5 days after cell injection (before treatment start at day 12)): 48 mg; Tumor Weight ([1]; 9 days after cell injection (before treatment start at day 12)): 69 mg; Tumor Weight ([1]; 12 days after cell injection (treatment start)): 137 mg; Tumor Weight ([1]; 15 days after cell injection): 185 mg; Tumor Weight ([1]; 19 days after cell injection): 207 mg; Tumor Weight ([1]; 22 days after cell injection): 235 mg; Tumor Weight ([1]; 26 days after cell injection): 310 mg; Tumor Weight ([1]; 28 days after cell injection): 363 mg

B1: D11: anti-Tie1 antibody; VH SEQ ID NO:84, VL SEQ ID NO:86 (antibody, V domains shown)
VH: EVQLLESGGGLVQPGGSLRLSCAASGFTFSGYAMWWVRQAPGKGLEWVSSISPSGGATAYADSVKGRFTISRDNSKNTLYLQMNSLRAEDTAVYYCARDAGSYYWGWFDPWGQGTLVTVSSASTKGPSVFP
VL: HSAQDIQMTQSPATLSLSPGERATLSCRASQSISSYLAWYQQKPGQPPRLLIYDASSRVTGIPARFSGSGFGTDFTLTISSLEPEDFAVYYCLQRSSWPRTFGQGTKLEIK
modifications: Synthetically generated peptide
Q: What does the source list for B1?
A: staining of breast carcinoma (Tie1): stained also other structures in addition to vessels; staining of kidney (Tie1): stained kidney tubules in addition to the vessels; staining of lung carcinoma (Tie1): stained structures other than vessels; staining of melanoma tissue (Tie1): also stained other surrounding structures; staining of normal lung (large veins) (Tie1): faint staining; staining of normal skin (Tie1): stained blood vessels very faintly; staining of veins and capillaries of mammary tissue (breast) (Tie1): stained those structures rather faintly; effect on the survival effect of E3 IgG in Tie1-EpoR Ba/F3 assay [2]: completely blocked the viability; also recorded: blocked completely the survival effect of E3 IgG; also recorded: counteract the agonistic activity of E3

B2: soluble VEGFR1: soluble VEGFR-1 (10 μg/ml), positive control for an angiogenic inhibitor (protein, UniProt P17948 27-758, looked up)
extracellular domain: SKLKDPELSLKGTQHIMQAGQTLHLQCRGEAAHKWSLPEMVSKESERLSITKSACGRNGKQFCSTLTLNTAQANHTGFYSCKYLAVPTSKKKETESAIYIFISDTGRPFVEMYSEIPEIIHMTEGRELVIPCRVTSPNITVTLKKFPLDTLIPDGKRIIWDSRKGFIISNATYKEIGLLTCEATVNGHLYKTNYLTHRQTNTIIDVQISTPRPVKLLRGHTLVLNCTATTPLNTRVQMTWSYPDEKNKRASVRRRIDQSNSHANIFYSVLTIDKMQNKDKGLYTCRVRSGPSFKSVNTSVHIYDKAFITVKHRKQQVLETVAGKRSYRLSMKVKAFPSPEVVWLKDGLPATEKSARYLTRGYSLIIKDVTEEDAGNYTILLSIKQSNVFKNLTATLIVNVKPQIYEKAVSSFPDPALYPLGSRQILTCTAYGIPQPTIKWFWHPCNHNHSEARCDFCSNNEESFILDADSNMGNRIESITQRMAIIEGKNKMASTLVVADSRISGIYICIASNKVGTVGRNISFYITDVPNGFHVNLEKMPTEGEDLKLSCTVNKFLYRDVTWILLRTVNNRTMHYSISKQKMAITKEHSITLNLTIMNVSLQDSGTYACRARNVYTGEEILQKKEITIRDQEAPYLLRNLSDHTVAISSSTTLDCHANGVPEPQITWFKNNHKIQQEPGIILGPGSSTLFIERVTEEDEGVYHCKATNQKGSVESSAYLTVQGTSDKSNLE
modifications: extracellular domain
Q: How did the “vessel-like structures in MATRIGEL plugs (H&E staining)” value [3] turn out when B2 was run?
A: The value was “neither modification of the matrix nor organization of the cells”.
